Experimental data from patent US20250295737A1 (AstraZeneca / MedImmune, published 2025).
Like-named read-outs stand apart in the source and are kept apart here.

Tests used:
Experiment in all cases: cell-based or functional assay
mouse RXFP1 [1] = molecular target: T1, mouse RXFP1 (mouse, UniProt Q6R6I7 1-758)
T1 sequence (looked up): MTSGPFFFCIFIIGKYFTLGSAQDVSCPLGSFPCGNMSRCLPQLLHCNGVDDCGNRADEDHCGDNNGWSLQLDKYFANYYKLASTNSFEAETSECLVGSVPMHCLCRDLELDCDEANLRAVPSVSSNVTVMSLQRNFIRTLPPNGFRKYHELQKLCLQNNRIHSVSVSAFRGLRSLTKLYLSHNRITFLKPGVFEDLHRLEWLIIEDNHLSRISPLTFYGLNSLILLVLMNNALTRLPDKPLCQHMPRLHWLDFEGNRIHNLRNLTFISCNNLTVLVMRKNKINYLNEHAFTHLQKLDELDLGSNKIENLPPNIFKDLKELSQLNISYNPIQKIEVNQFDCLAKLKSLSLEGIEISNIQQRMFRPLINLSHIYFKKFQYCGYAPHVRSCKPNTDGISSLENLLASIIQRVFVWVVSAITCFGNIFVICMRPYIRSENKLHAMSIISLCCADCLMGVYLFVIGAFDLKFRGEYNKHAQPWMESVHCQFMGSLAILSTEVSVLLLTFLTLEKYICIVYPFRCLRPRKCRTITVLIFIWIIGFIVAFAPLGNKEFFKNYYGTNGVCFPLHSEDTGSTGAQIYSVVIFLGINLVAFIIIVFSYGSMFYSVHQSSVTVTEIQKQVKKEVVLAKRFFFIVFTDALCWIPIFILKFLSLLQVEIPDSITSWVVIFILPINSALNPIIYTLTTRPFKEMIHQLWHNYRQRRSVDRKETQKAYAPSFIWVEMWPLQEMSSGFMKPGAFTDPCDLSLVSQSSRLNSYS

human RXFP2 [2] = molecular target: T2, human RXFP2 (human, UniProt Q8WXD0 1-754)
human RXFP1 [3] = molecular target: T3, human RXFP1 (human, UniProt Q9HBX9 1-757)
T3 sequence (looked up): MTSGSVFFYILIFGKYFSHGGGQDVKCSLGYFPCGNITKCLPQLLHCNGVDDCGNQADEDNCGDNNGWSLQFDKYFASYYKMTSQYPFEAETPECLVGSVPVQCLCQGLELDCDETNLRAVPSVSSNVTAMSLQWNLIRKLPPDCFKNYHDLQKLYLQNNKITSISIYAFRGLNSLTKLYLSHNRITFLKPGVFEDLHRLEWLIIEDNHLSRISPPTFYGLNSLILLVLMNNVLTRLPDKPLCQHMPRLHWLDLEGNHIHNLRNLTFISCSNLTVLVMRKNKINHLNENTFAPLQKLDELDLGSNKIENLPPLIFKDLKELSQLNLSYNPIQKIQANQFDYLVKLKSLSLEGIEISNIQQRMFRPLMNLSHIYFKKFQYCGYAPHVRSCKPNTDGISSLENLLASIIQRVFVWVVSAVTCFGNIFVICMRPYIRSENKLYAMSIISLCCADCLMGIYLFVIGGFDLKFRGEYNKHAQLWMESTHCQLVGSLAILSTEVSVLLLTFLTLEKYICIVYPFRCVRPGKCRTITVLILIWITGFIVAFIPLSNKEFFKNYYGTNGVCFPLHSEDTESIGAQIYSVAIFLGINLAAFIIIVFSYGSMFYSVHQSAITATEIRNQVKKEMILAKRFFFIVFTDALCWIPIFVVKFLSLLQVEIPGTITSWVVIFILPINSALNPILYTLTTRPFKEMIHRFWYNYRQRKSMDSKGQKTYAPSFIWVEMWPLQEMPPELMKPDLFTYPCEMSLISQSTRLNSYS

mouse RXFP1 [4] = molecular target: T1, mouse RXFP1; remark: listed apart in the source
human RXFP2 [5] = molecular target: T2, human RXFP2; remark: listed apart in the source
human RXFP1 [6] = molecular target: T3, human RXFP1; remark: listed apart in the source
mouse RXFP1 [7] = molecular target: T1, mouse RXFP1; remark: listed apart in the source
human RXFP2 [8] = molecular target: T2, human RXFP2; remark: listed apart in the source
human RXFP1 [9] = molecular target: T3, human RXFP1; remark: listed apart in the source

T2 sequence (Q8WXD0 whole entry): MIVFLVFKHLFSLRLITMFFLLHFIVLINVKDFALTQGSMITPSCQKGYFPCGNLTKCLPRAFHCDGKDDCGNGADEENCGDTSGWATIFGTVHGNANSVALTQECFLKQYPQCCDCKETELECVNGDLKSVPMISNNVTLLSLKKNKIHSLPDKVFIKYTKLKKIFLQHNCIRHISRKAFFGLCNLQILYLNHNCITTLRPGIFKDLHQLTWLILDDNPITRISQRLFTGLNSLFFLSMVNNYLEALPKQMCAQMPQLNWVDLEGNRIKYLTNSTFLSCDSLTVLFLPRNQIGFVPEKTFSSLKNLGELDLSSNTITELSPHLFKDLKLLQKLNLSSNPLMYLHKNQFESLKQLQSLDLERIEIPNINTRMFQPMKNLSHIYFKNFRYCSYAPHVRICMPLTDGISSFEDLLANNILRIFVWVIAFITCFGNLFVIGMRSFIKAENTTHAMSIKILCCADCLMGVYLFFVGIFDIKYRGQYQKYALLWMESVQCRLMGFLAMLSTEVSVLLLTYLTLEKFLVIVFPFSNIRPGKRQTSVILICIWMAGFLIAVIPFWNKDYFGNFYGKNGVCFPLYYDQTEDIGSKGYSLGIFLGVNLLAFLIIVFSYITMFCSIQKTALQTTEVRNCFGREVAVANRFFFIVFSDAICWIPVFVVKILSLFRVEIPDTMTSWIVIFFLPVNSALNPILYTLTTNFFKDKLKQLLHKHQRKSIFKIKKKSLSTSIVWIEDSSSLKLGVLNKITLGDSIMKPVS

B1: RELAX0014 (ligand)
chain 1: MRVSEEWMDGFIRMCGREYARELIKICGASVGR
chain 2: ESGGLMSQQCCHVGCSRRSIAKLYC
EC50 mRXFP1 (M), cAMP HTRF assay (mouse RXFP1 [1]): 2.37e-12 M
EC50 hRXFP2 (M), cAMP HTRF assay (human RXFP2 [2]): 1.78e-12 M
EC50 hRXFP1 (M), cAMP HTRF assay (human RXFP1 [3]): 4.47e-12 M
EC50 mRXFP1 (M), cAMP HTRF assay (mouse RXFP1 [4]): 2.37e-12 M
EC50 hRXFP2 (M), cAMP HTRF assay (human RXFP2 [5]): 1.78e-12 M
EC50 hRXFP1 (M), cAMP HTRF assay (human RXFP1 [6]): 4.47e-12 M
EC50 mRXFP1 (M), cAMP HTRF assay (mouse RXFP1 [7]): 2.37e-12 M
EC50 hRXFP2 (M), cAMP HTRF assay (human RXFP2 [8]): 1.78e-12 M
EC50 hRXFP1 (M), cAMP HTRF assay (human RXFP1 [9]): 4.47e-12 M

B2: RELAX0019 (Fc fusion)
chain 1: GGAGGACPPCPAPEFEGGPSVFLFPPKPKDTLMISRTPEVTCVVVDVSHEDPEVKFNWYVDGVEVHNAKTKPREEQYNSTYRVVSVLTVLHQDWLNGKEYKCKVSNKALPASIEKTISKAKGQPREPQVYTLPPCREEMTKNQVSLWCLVKGFYPSDIAVEWESNGQPENNYKTTPPVLDSDGSFFLYSKLTVDKSRWQQGNVFSCSVMHEALHNHYTQKSLSLSPGGGGGSGGGGSGGGGSGGGGGSQLYSALANKCCHVGCTKRSLARFC
chain 2: GGAGGACPPCPAPEFEGGPSVFLFPPKPKDTLMISRTPEVTCVVVDVSHEDPEVKFNWYVDGVEVHNAKTKPREEQYNSTYRVVSVLTVLHQDWLNGKEYKCKVSNKALPASIEKTISKAKGQPREPQVCTLPPSREEMTKNQVSLSCAVKGFYPSDIAVEWESNGQPENNYKTTPPVLDSDGSFFLVSKLTVDKSRWQQGNVFSCSVMHEALHNHYTQKSLSLSPGGGGGSGGGGSGGGGSGGGGGSSWMEEVIKLCGRELVRAQIAICGMSTWS
EC50 mRXFP1 (M), cAMP HTRF assay (mouse RXFP1 [1]): 2.24e-11 M
EC50 hRXFP2 (M), cAMP HTRF assay (human RXFP2 [2]): 4.4e-08 M
EC50 hRXFP1 (M), cAMP HTRF assay (human RXFP1 [3]): 5.81e-11 M
EC50 mRXFP1 (M), cAMP HTRF assay (mouse RXFP1 [4]): 9.1e-12 M
EC50 hRXFP2 (M), cAMP HTRF assay (human RXFP2 [5]): 3.42e-08 M
EC50 hRXFP1 (M), cAMP HTRF assay (human RXFP1 [6]): 3.57e-11 M
EC50 mRXFP1 (M), cAMP HTRF assay (mouse RXFP1 [7]): 2.24e-11 M
EC50 hRXFP2 (M), cAMP HTRF assay (human RXFP2 [8]): 4.4e-08 M
EC50 hRXFP1 (M), cAMP HTRF assay (human RXFP1 [9]): 5.81e-11 M
